# Data published in paper PMC7895908.
# What was measured:
# Assay in all cases: ITC
# YFP = YFP (UniProt P42212)
# [1] = target: mEGFP (monomeric enhanced GFP) (UniProt P42212)
# mVenus = mVenus (UniProt P42212)
# sfGFP (super folder GFP) = sfGFP (super folder GFP) (UniProt P42212)
sequence,measurement,setting,value
GGGAGCUUCUGGACUGCGAUGGGAGCACGAAACGUCGUGGCGCAAUUGGGUGGGGAAAGUCCUUAAAAGAGGGCCACCACAGAAGCUCCC [free RNA aptamer against GFP family],Kd,YFP,4 nM
same,Kd,[1],5 nM
same,Kd,mVenus,5 nM
same,Kd,sfGFP (super folder GFP),13 nM
